According to publication PMC2892505, “SUMO-1 possesses DNA binding activity”:

Assays:
GST-SUMO-1 [1] = experiment: cross-linking; about 100 ng protein without or with increasing dsDNA, 10 min 37°C in NMR buffer (100 mM Na2PO4 pH 6.6, 1 mM EDTA, 1 mM DTT), UV 312 nm 10 min, SDS-PAGE and western blot (anti-GST or anti-SUMO-1); also with DNaseI treatment
GST-SUMO-1 [2] = biological target: GST-SUMO-1 (human, UniProt P63165 1-101); experiment: UV crosslinking, Western blot; complex migrates faster than with 65-mer; NMR: 100 mM NaPi pH 6.6, 1 mM DTT, 1 mM EDTA, temperature not stated; UV crosslink: 100 ng GST-SUMO-1 with 500 ng dsDNA, buffer not stated; details: protein: recombinant; chain copies: 2; blunt
Chain of GST-SUMO-1 (human, UniProt P63165 1-101) (P63165 whole entry): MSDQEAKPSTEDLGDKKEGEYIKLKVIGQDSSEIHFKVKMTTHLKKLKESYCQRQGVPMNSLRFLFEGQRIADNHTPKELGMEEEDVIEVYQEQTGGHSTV

SUMO-1 = SUMO-1 (human, UniProt P63165 1-101); experiment: UV crosslinking, Western blot; NMR: 100 mM NaPi pH 6.6, 1 mM DTT, 1 mM EDTA, temperature not stated; UV crosslink: 100 ng GST-SUMO-1 with 500 ng dsDNA, buffer not stated; details: protein: recombinant; tags: untagged (GST removed by thrombin); 15N-labeled for NMR; blunt
Chain of SUMO-1 (P63165 whole entry): as above

GST-SUMO-1
stoichiometry N (GST-SUMO-1 [1]): 2

B1: 27-mer (dsDNA)
DNA 1: CGGGGCCGGGGCGGGCCGCGCAAGCAG
DNA 2: CTGCTTGCGCGGCCCGCCCCGGCCCCG
binding result (GST-SUMO-1 [2]): binds | binding result (SUMO-1): binds
